In PMC4005678 one finds binding signal (fold weaker than M/M) and binding signal (fold Kd vs M/M) data, which are given here for 5 sequences.

The data set concerns the target Klf4 ZnF1-3 DNA-binding domain (mouse) (UniProt Q60793). The data set can be described thus: fluorescence polarization. The following applies: FP: 20 mM Tris-HCl pH 7.5, 150 mM NaCl, 5% (v/v) glycerol, 0.5 mM TCEP, ~22 C, probe 10 nM (WT) or 1 nM (E446A). (In general: In fluorescence polarisation assays a small probe gives low polarisation when free and higher when bound to something large.)

Klf4 ZnF1-3 DNA-binding domain (mouse), sequence (Q60793 396-483): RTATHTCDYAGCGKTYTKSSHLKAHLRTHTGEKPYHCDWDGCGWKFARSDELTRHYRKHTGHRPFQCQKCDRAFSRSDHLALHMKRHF

Sequence “GAGGCGTGGC / TTGCCACGCCTC [Klf4 site 5caC/M]” came in with a binding signal (fold weaker than M/M) (5caC at position 5 of strand 1, 5mC at position 7 of strand 2) of 6.

Consider “GAGGCGTGGC / TTGCCACGCCTC [Klf4 site 5fC/M]”, for which, for the setting “5fC at position 5 of strand 1, 5mC at position 7 of strand 2”, the binding signal (fold weaker than M/M) stood at 3.

In turn, “GAGGCGTGGC / TTGCCACGCCTC [Klf4 site 5hmC/M]” gave a binding signal (fold weaker than M/M) (5hmC at position 5 of strand 1, 5mC at position 7 of strand 2) of 2.

In turn, “GAGGCGTGGC / TTGCCACGCCTC [Klf4 site C/C]” yielded a binding signal (fold weaker than M/M) of 1.5.

Sequence “GAGGCGTGGC / TTGCCACGCCTC [Klf4 site C/M]” came in with a binding signal (fold weaker than M/M) (repeat series, C at position 5 of strand 1, 5mC at position 7 of strand 2) of 1.5. For the same sequence, the binding signal (fold Kd vs M/M) (text: difference only ~40%, C at position 5 of strand 1, 5mC at position 7 of strand 2) was 1.4.
